Molecular target: type I Collagen (Sigma)
Assay: solid phase assay, biotinylated rBSdrF titrated on collagen-coated wells

Substance: purified recombinant B domain of SdrF (rBSdrF), N-terminal His tag (from UniProt Q9KI14 678-1128)
- concentration at which maximum binding occurs: 20 ng/mL
